B1: VHH72 (VHH)
VHH: QVQLQESGGGLVQAGGSLRLSCAASGRTFSEYAMGWFRQAPGKEREFVATISWSGGSTYYTDSVKGRFTISRDNAKNTVYLQMNSLKPDDTAVYYCAAAGLGTVVSEWDYDYDYWGQGTQVTVSS
B2: NIH-CoVnb-112 (VHH)
VHH: DVQLQESGGGLVQPGGSLRLSCAASGLTLDYYAIGWFRQAPGKEREGVSCISSSDGSTYYADSVKGRFTTSRDNAKNTVYLQMNSLKPEDTAVYYCAAVPSTYYSGTYYYTCHPGGMDYWGKGTQVTVSS
notes: also called lead nanobody candidate; anti-SARS-CoV-2 RBD nanobody; source: E. coli BL21 (DE3), periplasm by osmotic shock, purified (HisTrap, Superdex 75)

How the values were obtained:
Conditions in all cases: both partners purified
[1] = target: Biotinylated SARS-CoV-2 S protein RBD with a C-terminal AviTag (SARS-CoV-2, canonical (Wuhan-Hu-1) …, UniProt P0DTC2, biotinylated); assay: BLI
[2] = target: T1, Horse radish peroxidase conjugated RBD (GenScript SARS-CoV-2 Neutralization Antibody Detection Kit) (SARS-CoV-2, UniProt P0DTC2); assay: ELISA
T1 construct: source: bought: GenScript (kit L00847)

[3] = target: SARS-CoV-2 RBD (cross-reactivity experiments) (SARS-CoV-2, UniProt P0DTC2); assay: ELISA
[4] = target: SARS-CoV-2 Receptor Binding Domain (RBD) (SARS-CoV-2, UniProt P0DTC2); assay: SPR

Binder | binding result [1] | binding result [2] | binding result [3] | Kd [4]
B1 | binds | – | – | –
B2 | – | binds | binds | 2.1 nM

— PMC7755911 (Scientific Reports, 2020)
